Experimental findings from publication PMC4938799, “LD Motif Recognition by Talin: Structure of the Talin-DLC1 Complex” (Structure(London, England:1993), 2016) are described below.

This assay has as its target T1, talin R8 domain.
T1 construct: talin rod domain R8 (four-helix bundle), isolated domain used 15N-labelled for NMR; Construct limits, host and species are probably in the Supplemental Experimental Procedures; also called [15N]talin R8 domain
Briefly: NMR titration; KD fitted from 1H,15N-HSQC chemical-shift changes; 0.1 mM 15N talin R8, peptide/protein ratios 0.1 to 8; 298 K, 20 mM sodium phosphate pH 6.5, 50 mM NaCl. Particulars: both partners purified.

A word on the Kd: it is a measure of binding affinity in units of concentration.

On to ENEDIFPELDDILYHVKGMQRIVNQWSEK (Paper numbering is the 1091-residue isoform; +437 gives canonical numbering.) [DLC1(461–489) peptide], for which the dissociation constant (Kd) is 48 µM.
The value for MDDLDALLADLESTTS [paxillin LD1 peptide] was 168 µM.
